The record followed here is patent publication US20210347908A1 (ELPISCIENCE SUZHOU BIOPHARMA, published 2021).

Assay [1] concerns the target T1, Fc tagged human SIRPα v2 ECD recombinant protein (human).
T1 construct: range 1-369; cloned range M1-R369 includes the signal peptide; also called hSIRPα V2
The experiment in a line: ELISA. (ELISA stands for enzyme-linked immunosorbent assay.)

Assay [2] has as its target T2, Fc tagged human SIRPβ ECD recombinant protein (human, UniProt O00241 30-371).
T2 construct: range 1-371; cloned range includes the signal peptide; also called hSIRPβ; not shown: human IgG Fc region (hFc) of the pCPC vector
The experiment in a line: ELISA.

Assay [3] addresses T3, Fc tagged human SIRPα v1 ECD recombinant protein (human, UniProt P78324 31-370).
T3 construct: range 1-370; cloned range M1-R370 includes the signal peptide; also called hSIRPα V1; not shown: human IgG Fc region (hFc) of the pCPC vector
The experiment in a line: ELISA.

For assay [4], the target named is T4, Fc tagged human SIRPγ ECD recombinant protein (human, UniProt Q9P1W8 29-360).
T4 construct: range 1-360; cloned range includes the signal peptide; also called hSIRPγ; not shown: human IgG Fc region (hFc) of the pCPC vector
T4 sequence (Q9P1W8 29-360 limits assumed, form in doubt): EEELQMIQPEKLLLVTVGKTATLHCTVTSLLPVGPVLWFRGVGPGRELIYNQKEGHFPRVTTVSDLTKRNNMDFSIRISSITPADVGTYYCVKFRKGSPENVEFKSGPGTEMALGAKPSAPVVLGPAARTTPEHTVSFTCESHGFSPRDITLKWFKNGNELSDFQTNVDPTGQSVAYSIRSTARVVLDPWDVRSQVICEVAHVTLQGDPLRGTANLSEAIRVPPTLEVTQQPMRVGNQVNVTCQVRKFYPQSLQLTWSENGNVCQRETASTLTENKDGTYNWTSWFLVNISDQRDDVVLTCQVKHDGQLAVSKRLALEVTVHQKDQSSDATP
The experiment in a line: ELISA.

In assay [5] the target is T5, 6×His tagged human SIRPα v8 ECD recombinant protein (human).
T5 construct: extracellular domain; bought; also called hSIRPα V8
Briefly: ELISA.

Assay [6] deals with T6, 6×His tagged human SIRPα v1 ECD recombinant protein (human, UniProt P78324 31-373).
T6 construct: extracellular domain; bought; also called hSIRPα V1 (SPR antigen)
T6 sequence (P78324 other isoform, or with tags, fused parts or gaps): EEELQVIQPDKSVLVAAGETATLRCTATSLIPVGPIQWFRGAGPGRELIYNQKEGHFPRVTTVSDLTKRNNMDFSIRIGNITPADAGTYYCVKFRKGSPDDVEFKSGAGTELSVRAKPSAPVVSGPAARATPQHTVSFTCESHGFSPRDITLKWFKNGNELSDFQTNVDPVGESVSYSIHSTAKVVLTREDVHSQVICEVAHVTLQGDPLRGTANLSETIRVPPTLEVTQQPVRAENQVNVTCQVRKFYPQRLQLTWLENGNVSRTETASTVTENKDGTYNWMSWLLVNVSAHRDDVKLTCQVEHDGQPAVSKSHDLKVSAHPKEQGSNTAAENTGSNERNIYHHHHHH
The experiment in a line: SPR (Biacore), antibody captured. How it is done: (§1) Anti-SIRPα chimeric antibodies were characterized for binding affinity against human SIRPα v1, human SIRPα v2 and C57BL/6 mouse SIRPα using Biacore (GE). Briefly the antibodies to be tested were captured to CM5 chip (GE) using Human Antibody Capture Kit (GE). The antigens of 6×His tagged human SIRPα v1, human SIRPα v2 and C57BL/6 mouse SIRPα ECD recombinant proteins were serially diluted for multiple doses and injected at 30 μl/min for 180 s. Buffer flow was maintained for dissociation of 400 s. 3 M MgCl₂ was used for chip regeneration. The association and dissociation curves were fit with 1:1 binding model, and the Ka/Kd/KD values for each antibody were calculated.

For assay [7], the target named is T7, full length C57BL/6 mouse SIRPα stably expressed on CHOK1 cells (mouse (C57BL/6), UniProt P97797 32-513).
T7 construct: whole, on cells; also called CHOK1-C57BL/6 mouse SIRPα-2.22 cells
T7 sequence (looked up): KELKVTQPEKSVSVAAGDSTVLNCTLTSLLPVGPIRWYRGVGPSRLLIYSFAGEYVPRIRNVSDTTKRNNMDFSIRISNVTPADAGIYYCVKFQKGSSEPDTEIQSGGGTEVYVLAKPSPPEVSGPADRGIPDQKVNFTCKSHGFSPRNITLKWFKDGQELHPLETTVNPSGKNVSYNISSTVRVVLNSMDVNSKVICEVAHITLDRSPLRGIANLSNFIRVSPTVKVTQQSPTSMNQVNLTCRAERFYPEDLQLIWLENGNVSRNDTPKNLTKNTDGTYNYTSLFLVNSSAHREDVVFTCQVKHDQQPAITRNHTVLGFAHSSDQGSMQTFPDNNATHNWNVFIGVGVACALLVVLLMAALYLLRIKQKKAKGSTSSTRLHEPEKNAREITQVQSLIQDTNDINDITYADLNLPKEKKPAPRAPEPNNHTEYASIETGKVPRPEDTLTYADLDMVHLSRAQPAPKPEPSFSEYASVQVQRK
The experiment in a line: FACS on CHOK1 cells. The method, then:
(§2) Species cross reactivity of the purified hybridoma antibodies against human, cyno and mouse SIRPα was determined by FACS assay using CHOK1-human SIRPα v1-1B4 cells, CHOK1-cyno SIRPα-2A2 cells, and CHOK1-C57BL/6 mouse SIRPα-2.22 cells, which stably expressing SIRPα protein. Briefly the antibodies were incubated with 2×10⁵ target cells at 4° C. for 1 hour. After washing, fluorescence labeled anti-mouse or anti-human IgG 2nd antibody (Life Technologies) was added and incubated at 4° C. for 1 hour. Geometric median fluorescence intensity was detected and EC₅₀ was calculated. In particular, it is noted, in contrast to the other antibodies tested in the same experiment, 060 cannot bind with cyno SIRPα and 035 has cross reactivity against C57BL/6 mouse SIRPα.

Assay [8] has as its target T8, full length human SIRPα v1 stably expressed on CHOK1 cells (human, UniProt P78324 31-504).
T8 construct: whole, on cells; also called CHOK1-human SIRPα v1-1B4 cells; CHOK1-human SIRPα v1
Briefly: FACS on CHOK1 cells. The method, then:
as §2

The target of assay [9] is T9, full length cyno SIRPα stably expressed on CHOK1 cells (cynomolgus monkey, UniProt A0A2K5VYQ9 31-507).
T9 construct: whole, on cells; also called CHOK1-cyno SIRPα-2A2 cells; CHOK1-cyno SIRPα
T9 sequence: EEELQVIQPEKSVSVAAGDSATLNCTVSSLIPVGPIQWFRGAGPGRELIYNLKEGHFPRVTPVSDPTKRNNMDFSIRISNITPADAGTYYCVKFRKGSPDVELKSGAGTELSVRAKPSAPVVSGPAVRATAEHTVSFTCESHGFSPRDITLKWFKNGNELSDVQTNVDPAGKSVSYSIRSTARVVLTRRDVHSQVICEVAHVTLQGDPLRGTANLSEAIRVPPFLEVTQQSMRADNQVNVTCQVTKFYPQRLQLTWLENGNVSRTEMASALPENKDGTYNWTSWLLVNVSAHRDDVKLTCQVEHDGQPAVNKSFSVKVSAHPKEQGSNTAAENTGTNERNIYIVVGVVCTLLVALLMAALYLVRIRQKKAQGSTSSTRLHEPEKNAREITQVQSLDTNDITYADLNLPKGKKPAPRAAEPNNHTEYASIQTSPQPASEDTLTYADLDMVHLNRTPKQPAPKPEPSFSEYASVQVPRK
Briefly: FACS on CHOK1 cells. The method, then: as §2

For assay [10], the target named is T6, 6×His tagged human SIRPα v1 ECD …. The experiment in a line: SPR (Biacore).
The target of assay [11] is T10, biotin labeled soluble human SIRPα v1 ECD recombinant protein (human, UniProt P78324 31-373, biotin labeled).
T10 construct: extracellular domain
T10 sequence (P78324 31-373): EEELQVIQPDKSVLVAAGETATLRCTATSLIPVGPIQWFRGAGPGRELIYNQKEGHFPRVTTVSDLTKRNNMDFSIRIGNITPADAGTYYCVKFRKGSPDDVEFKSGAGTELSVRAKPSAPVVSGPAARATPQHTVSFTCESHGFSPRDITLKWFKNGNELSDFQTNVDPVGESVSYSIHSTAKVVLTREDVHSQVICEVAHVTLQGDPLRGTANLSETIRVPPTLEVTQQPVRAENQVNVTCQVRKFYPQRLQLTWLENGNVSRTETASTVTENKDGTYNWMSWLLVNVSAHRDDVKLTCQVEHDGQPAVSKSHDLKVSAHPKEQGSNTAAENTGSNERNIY
The experiment in a line: competitive ELISA, hSIRPα/CD47 blocking.

Assay [12] has as its target T11, 6×His tagged C57BL/6 mouse SIRPα ECD recombinant protein (mouse (C57BL/6), UniProt P97797 32-373).
T11 construct: extracellular domain; bought; also called mSIRPα (C57BL/6); mouse SIRPα (C57BL/6) ECD
T11 sequence: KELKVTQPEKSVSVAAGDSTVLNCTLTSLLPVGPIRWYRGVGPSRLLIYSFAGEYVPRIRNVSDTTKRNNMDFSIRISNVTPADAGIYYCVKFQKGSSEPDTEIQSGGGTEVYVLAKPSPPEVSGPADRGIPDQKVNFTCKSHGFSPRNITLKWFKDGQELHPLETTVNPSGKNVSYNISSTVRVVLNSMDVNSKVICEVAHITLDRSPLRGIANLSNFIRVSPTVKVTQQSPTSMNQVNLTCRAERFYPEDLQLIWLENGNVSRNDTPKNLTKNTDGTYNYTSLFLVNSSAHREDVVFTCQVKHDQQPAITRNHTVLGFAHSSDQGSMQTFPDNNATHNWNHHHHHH
The experiment in a line: ELISA on coated mouse SIRPα (C57BL/6) ECD [Continued) F].

The target in assay [13] is T12, 6×His tagged human SIRPα v2 ECD recombinant protein (human). The experiment in a line: SPR (Biacore), antibody captured. How it is done:
as §1
A general note: In SPR one partner is held on a chip, and binding of the other changes the refractive index at the surface.

For assay [14], the target named is T11, 6×His tagged C57BL/6 mouse SIRPα ECD …. The experiment in a line: SPR (Biacore), antibody captured. How it is done:
as §1

In assay [15] the target is T12, 6×His tagged human SIRPα v2 ECD …. Briefly: SPR (Biacore).
For assay [16], the target named is T11, 6×His tagged C57BL/6 mouse SIRPα ECD …. The experiment in a line: SPR (Biacore).

T2 sequence (O00241 30-371 limits assumed, form in doubt): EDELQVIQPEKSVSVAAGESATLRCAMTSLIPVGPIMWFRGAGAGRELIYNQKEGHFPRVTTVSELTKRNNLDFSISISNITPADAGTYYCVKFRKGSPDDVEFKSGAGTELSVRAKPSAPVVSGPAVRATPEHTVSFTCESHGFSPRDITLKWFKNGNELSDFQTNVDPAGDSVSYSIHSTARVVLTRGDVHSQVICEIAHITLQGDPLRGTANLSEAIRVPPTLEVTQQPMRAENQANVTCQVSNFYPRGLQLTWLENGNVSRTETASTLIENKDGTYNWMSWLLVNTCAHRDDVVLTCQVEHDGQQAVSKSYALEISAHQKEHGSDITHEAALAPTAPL
T3 sequence (P78324 31-370 limits assumed): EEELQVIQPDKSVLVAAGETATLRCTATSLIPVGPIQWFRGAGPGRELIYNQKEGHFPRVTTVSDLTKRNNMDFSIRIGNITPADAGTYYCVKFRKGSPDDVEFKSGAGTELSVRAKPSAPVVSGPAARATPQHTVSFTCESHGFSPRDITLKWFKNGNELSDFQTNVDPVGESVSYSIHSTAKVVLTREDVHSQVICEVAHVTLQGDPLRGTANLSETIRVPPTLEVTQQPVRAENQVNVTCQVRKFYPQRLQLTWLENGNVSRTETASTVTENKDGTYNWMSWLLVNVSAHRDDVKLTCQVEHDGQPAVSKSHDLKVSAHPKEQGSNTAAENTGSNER
T12 sequence (chain, as listed by the source): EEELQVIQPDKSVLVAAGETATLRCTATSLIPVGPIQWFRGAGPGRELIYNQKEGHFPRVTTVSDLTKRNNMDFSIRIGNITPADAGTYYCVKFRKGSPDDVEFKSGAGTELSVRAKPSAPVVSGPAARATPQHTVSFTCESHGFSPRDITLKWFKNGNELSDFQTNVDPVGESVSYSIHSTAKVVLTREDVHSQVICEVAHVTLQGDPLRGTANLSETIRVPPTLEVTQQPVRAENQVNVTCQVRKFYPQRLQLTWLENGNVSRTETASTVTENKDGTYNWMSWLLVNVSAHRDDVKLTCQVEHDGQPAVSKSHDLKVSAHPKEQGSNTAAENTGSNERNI

B1: humanized antibody hu035.03 (antibody, V domains shown)
VH: QIQLVQSGSELKKPGASVKVSCRARGYTLTDYAMNWVRQAPGQGLEWMGFINTYTGEPTYAQGFKGRFVFSLDTSVSTAYLQIGSLKAEDTAVYYCARTRGYYDFDGGAFDYWGQGTLVTVSS
VL: DIQMTQSPSSLSASVGDRVTITCRASQNVGTHLAWYQQKPGKSPKALIFSASYRYIGVPSRFSGSGSGTDFTLTISSLQPEDFATYYCQQYNTYPLTFGQGTKLEIK
The term EC50 denotes the midpoint of the concentration-response curve. Usually Kd stands for a measure of binding affinity in units of concentration. What is called koff is the first-order rate constant of dissociation. Usually kon stands for the second-order rate constant of association. In general, IC50 refers to the concentration needed to halve the response being measured. The EC50 (read off the curve) is the midpoint of the concentration-response curve. Turning to B1, the EC50 in assay [1] worked out at 110 pM; in assay [2], 170 pM; in [3], 130 pM; in [4] it was 6780 pM; in assay [5], 230 pM; in assay [8], 1460 pM. For the same molecule, a half-maximal effect in [9] (EC50) was put at 300 pM. Besides, the Kd in assay [6] and in assay [10] was 3200 pM throughout. In addition, the koff in [6] came out at 0.000189 s⁻¹. For the same molecule, the kon in [6] worked out at 59200 M⁻¹ s⁻¹. Further, the “MFI at 2 ug/ml” value in [7] is 626 MFI. In assay [11], the IC50 was 1430 pM. Moreover, the “EC50 (read off the curve)” value in assay [12] was around 0.09 µg/mL.

B2: humanized antibody hu035.13 (antibody, V domains shown)
VH: QIQLVQSGSELKKPGASVKVSCKASGYSITNYAMNWVRQAPGQGLEWMGFINTYTGEPTYAQGFKGRFVFSLDTSVSTAYLQISSLKAEDTAVYYCARTRGYYDFDGGAFDYWGQGTLVTVSS
VL: DIQMTQSPSRLGASVGDRVTITCRASQNVGTHLAWYQQKPGKAPKSLIYSAIYRYIGVPSRFSGSGSGTDFTLTISSLQPEDFATYFCQQYNTYPLTFDQGTKLEIKR
Consider B2, for which the EC50 in assay [1] came to 170 pM; in assay [2], 180 pM; in [3], 140 pM; in assay [4], 670 pM; in assay [5] it was 160 pM; in assay [8], 1030 pM. The same molecule came in with an EC50 in [9] of 260 pM. For the same molecule, the Kd in [13] is 3200 pM; in assay [14], 45800 pM; in assay [6], 610 pM; in assay [15], 1240 pM; in assay [16] it was 45800 pM; in [10] it was 610 pM. Moreover, the koff in [13] was 0.000189 s⁻¹; in assay [14], 0.00259 s⁻¹; in assay [6], 0.000117 s⁻¹. For the same molecule, the results for the on-rate (kon) in [13], in [14] and in [6] were 59200 M⁻¹ s⁻¹, 56600 M⁻¹ s⁻¹ and 192000 M⁻¹ s⁻¹, respectively. For the same molecule, the “MFI at 2 ug/ml” value in assay [7] is 876 MFI. Further, the IC50 in assay [11] came out at 1330 pM.

B3: humanized antibody hu035.14 (antibody, V domains shown)
VH: QIQLVQSGSELKKPGASVKVSCKASGYSITDYAMNWVRQAPGQGLEWMGFINTYTGEPTYAQGFKGRFVFSLDTSVSTAYLQISSLKAEDTAVYYCARTRGYYDFDGGAFDYWGQGTLVTVSS
VL: DIQMTQSPSSLSASVGDRVTITCRASQNVGTHLAWYQQKPGKSPKALIFSAIYRYIGVPSRFSGSGSGTDFTLTISNLQPEDFATYYCQQYNTYPLTFGQGTKLEIK
As to B3, the EC50 in [1] stood at 160 pM; in assay [2], 230 pM; in assay [3], 150 pM; in assay [4] it was 520 pM; in assay [5], 280 pM; in assay [8] it was 1310 pM. In assay [9], this molecule showed an EC50 of 360 pM. In addition, the Kd in assay [6] and in assay [10] was 1440 pM each time. Also, the koff in assay [6] worked out at 0.000129 s⁻¹. Moreover, the kon in assay [6] stood at 89200 M⁻¹ s⁻¹. In assay [7], the “MFI at 2 ug/ml” value stood at 1050 MFI. For the same molecule, in assay [11], the IC50 was 1460 pM. Also, the “EC50 (read off the curve)” value in assay [12] is around 0.04 µg/mL.

B4: humanized antibody hu035.09 (antibody, V domains shown)
VH: QIQLVQSGSELKKPGASVKVSCRAGGYTLTDYAMNWVRQAPGQGLEWMGFINTYTGEPTYAQGFKGRFVFSLDTSVSTAYLQIGSLKAEDTAVYYCARTRGYYDFDGGAFDYWGQGTLVTVSS
VL: DIQMTQSPSSLSASVGDRVTITCRASQNVGTHLAWYQQKPGKAPKSLIYSAIYRYIGVPSRFSGSGSGTDFTLTISSLQPEDFATYYCQQYNTYPLTFGQGTKLEIK
On to B4, for which the EC50 in [1] worked out at 190 pM; in assay [2], 230 pM; in [3], 130 pM; in assay [4] it was 1050 pM; in [5], 210 pM; in assay [8] it was 1450 pM. The molecule also registered an EC50 in [9] of 360 pM. The Kd in [6] and in assay [10] was 2170 pM each time. Further, the koff in assay [6] worked out at 0.000191 s⁻¹. Also, in [6], the kon turned out to be 88300 M⁻¹ s⁻¹. The “MFI at 2 ug/ml” value in assay [7] was 950 MFI. In addition, the IC50 in assay [11] was determined as 1360 pM. Moreover, in assay [12], the “EC50 (read off the curve)” value is around 0.04 µg/mL.
